The record followed here is paper PMC9352680, “A comprehensive thermodynamic model for RNA binding by the Saccharomyces cerevisiae Pumilio protein PUF4”.

B1: Id_ii_S2_P5E.3_K5.2_C5.2_[C-2T]_H5.2_A5.1_F5.1_T5.2_[T11C] (ssRNA)
RNA: UUUGAUUAAUAUGAUAUCGUUCUUUCUUUUAUAUUAUUACAUUCUUUCUCGAUAUCAUAUUAAUCUUU
B2: Id_ii_S2_P5E.3_K5.2_C5.2_[C-2T]_H5.2_A5.1_F5.1_T5.2_[A12T] (ssRNA)
RNA: UUUGAUUAAUAUGAUAUCGUUCUUUCUUUUAUAUUAUUAUUUUCUUUCUCGAUAUCAUAUUAAUCUUU
B3: Id_ii_S2_P5E.3_K5.2_C5.2_[T-1G]_H5.2_A5.1_F5.1_T5.2_[T11A]_[A12C] (ssRNA)
RNA: UUUGAUUAAUAUGAUAUCGUUCUUUCUCGUAUAUUAUUAACUUCUUUCUCGAUAUCAUAUUAAUCUUU
B4: Id_ii_S2_P5E.3_K5.2_C5.2_[C-2A]_[T-1C]_H5.2_A5.1_F5.1_T5.2_[T11A]_[A12T] (ssRNA)
RNA: UUUGAUUAAUAUGAUAUCGUUCUUUCUACUAUAUUAUUAAUUUCUUUCUCGAUAUCAUAUUAAUCUUU
B5: Id_ii_S2_P5E.3_K5.2_C5.2_[C-2A]_H5.2_A5.1_F5.1_T5.2_[T11C]_[A12C] (ssRNA)
RNA: UUUGAUUAAUAUGAUAUCGUUCUUUCUAUUAUAUUAUUACCUUCUUUCUCGAUAUCAUAUUAAUCUUU
B6: Id_ii_S2_P5E.3_K5.2_C5.2_[T-1C]_H5.2_A5.1_F5.1_T5.2_[T11C]_[A12C] (ssRNA)
RNA: UUUGAUUAAUAUGAUAUCGUUCUUUCUCCUAUAUUAUUACCUUCUUUCUCGAUAUCAUAUUAAUCUUU
B7: Id_ii_S2_P5E.3_K5.2_C5.2_[T-1G]_H5.2_A5.1_F5.1_T5.2_[T11G]_[A12T] (ssRNA)
RNA: UUUGAUUAAUAUGAUAUCGUUCUUUCUCGUAUAUUAUUAGUUUCUUUCUCGAUAUCAUAUUAAUCUUU
B8: Id_ii_S2_P5E.3_K5.2_C5.2_[C-2A]_[T-1A]_H5.2_A5.1_F5.1_T5.2_[T11C]_[A12C] (ssRNA)
RNA: UUUGAUUAAUAUGAUAUCGUUCUUUCUAAUAUAUUAUUACCUUCUUUCUCGAUAUCAUAUUAAUCUUU
B9: Id_ii_S2_P5E.3_K5.2_C5.2_[T-1G]_H5.2_A5.1_F5.1_T5.2_[T11A]_[A12T] (ssRNA)
RNA: UUUGAUUAAUAUGAUAUCGUUCUUUCUCGUAUAUUAUUAAUUUCUUUCUCGAUAUCAUAUUAAUCUUU
B10: Id_ii_S2_P5E.3_K5.2_C5.2_[C-2A]_H5.2_A5.1_F5.1_T5.2_[T11C] (ssRNA)
RNA: UUUGAUUAAUAUGAUAUCGUUCUUUCUAUUAUAUUAUUACAUUCUUUCUCGAUAUCAUAUUAAUCUUU
B11: Id_ii_S2_P5E.3_K5.2_C5.2_[C-2A]_H5.2_A5.1_F5.1_T5.2_[T11C]_[A12G] (ssRNA)
RNA: UUUGAUUAAUAUGAUAUCGUUCUUUCUAUUAUAUUAUUACGUUCUUUCUCGAUAUCAUAUUAAUCUUU
B12: Id_ii_S2_P5E.3_K5.2_C5.2_[C-2A]_[T-1C]_H5.2_A5.1_F5.1_T5.2_[T11C]_[A12T] (ssRNA)
RNA: UUUGAUUAAUAUGAUAUCGUUCUUUCUACUAUAUUAUUACUUUCUUUCUCGAUAUCAUAUUAAUCUUU
B13: Id_ii_S2_P5E.3_K5.2_C5.2_[C-2A]_[T-1A]_H5.2_A5.1_F5.1_T5.2_[T11C]_[A12G] (ssRNA)
RNA: UUUGAUUAAUAUGAUAUCGUUCUUUCUAAUAUAUUAUUACGUUCUUUCUCGAUAUCAUAUUAAUCUUU
B14: Id_ii_S2_P5E.3_K5.2_C5.2_[C-2A]_[T-1C]_H5.2_A5.1_F5.1_T5.2_[T11A] (ssRNA)
RNA: UUUGAUUAAUAUGAUAUCGUUCUUUCUACUAUAUUAUUAAAUUCUUUCUCGAUAUCAUAUUAAUCUUU
B15: Id_ii_S2_P5E.3_K5.2_C5.2_[C-2A]_[T-1C]_H5.2_A5.1_F5.1_T5.2_[T11C] (ssRNA)
RNA: UUUGAUUAAUAUGAUAUCGUUCUUUCUACUAUAUUAUUACAUUCUUUCUCGAUAUCAUAUUAAUCUUU
B16: Id_ii_S2_P5E.3_K5.2_C5.2_[T-1G]_H5.2_A5.1_F5.1_T5.2_[A12T] (ssRNA)
RNA: UUUGAUUAAUAUGAUAUCGUUCUUUCUCGUAUAUUAUUAUUUUCUUUCUCGAUAUCAUAUUAAUCUUU
B17: Id_ii_S2_P5E.3_K5.2_C5.2_[C-2A]_[T-1C]_H5.2_A5.1_F5.1_T5.2_[T11A]_[A12C] (ssRNA)
RNA: UUUGAUUAAUAUGAUAUCGUUCUUUCUACUAUAUUAUUAACUUCUUUCUCGAUAUCAUAUUAAUCUUU
B18: Id_ii_S2_P5E.3_K5.2_C5.2_[C-2T]_H5.2_A5.1_F5.1_T5.2_[T11A]_[A12T] (ssRNA)
RNA: UUUGAUUAAUAUGAUAUCGUUCUUUCUUUUAUAUUAUUAAUUUCUUUCUCGAUAUCAUAUUAAUCUUU
B19: Id_ii_S2_P5E.3_K5.2_C5.2_[C-2A]_H5.2_A5.1_F5.1_T5.2_[T11C]_[A12T] (ssRNA)
RNA: UUUGAUUAAUAUGAUAUCGUUCUUUCUAUUAUAUUAUUACUUUCUUUCUCGAUAUCAUAUUAAUCUUU
B20: Id_ii_S2_P5E.3_K5.2_C5.2_[C-2A]_H5.2_A5.1_F5.1_T5.2_[A12C] (ssRNA)
RNA: UUUGAUUAAUAUGAUAUCGUUCUUUCUAUUAUAUUAUUAUCUUCUUUCUCGAUAUCAUAUUAAUCUUU
B21: Id_ii_S2_P5E.3_K5.2_C5.2_[C-2A]_H5.2_A5.1_F5.1_T5.2_[A12T] (ssRNA)
RNA: UUUGAUUAAUAUGAUAUCGUUCUUUCUAUUAUAUUAUUAUUUUCUUUCUCGAUAUCAUAUUAAUCUUU
B22: Id_ii_S2_P5E.3_K5.2_C5.2_[T-1G]_H5.2_A5.1_F5.1_T5.2_[T11G]_[A12C] (ssRNA)
RNA: UUUGAUUAAUAUGAUAUCGUUCUUUCUCGUAUAUUAUUAGCUUCUUUCUCGAUAUCAUAUUAAUCUUU
B23: Id_ii_S2_P5E.3_K5.2_C5.2_[C-2A]_H5.2_A5.1_F5.1_T5.2_[T11G]_[A12C] (ssRNA)
RNA: UUUGAUUAAUAUGAUAUCGUUCUUUCUAUUAUAUUAUUAGCUUCUUUCUCGAUAUCAUAUUAAUCUUU
B24: Id_ii_S2_P5E.3_K5.2_C5.2_[C-2A]_[T-1C]_H5.2_A5.1_F5.1_T5.2_[A12T] (ssRNA)
RNA: UUUGAUUAAUAUGAUAUCGUUCUUUCUACUAUAUUAUUAUUUUCUUUCUCGAUAUCAUAUUAAUCUUU
B25: Id_ii_S2_P5E.3_K5.2_C5.2_[T-1G]_H5.2_A5.1_F5.1_T5.2_[A12C] (ssRNA)
RNA: UUUGAUUAAUAUGAUAUCGUUCUUUCUCGUAUAUUAUUAUCUUCUUUCUCGAUAUCAUAUUAAUCUUU
B26: Id_ii_S2_P5E.3_K5.2_C5.2_[C-2A]_[T-1A]_H5.2_A5.1_F5.1_T5.2_[T11C] (ssRNA)
RNA: UUUGAUUAAUAUGAUAUCGUUCUUUCUAAUAUAUUAUUACAUUCUUUCUCGAUAUCAUAUUAAUCUUU
B27: Id_ii_S2_P5E.3_K5.2_C5.2_[T-1C]_H5.2_A5.1_F5.1_T5.2_[T11C]_[A12G] (ssRNA)
RNA: UUUGAUUAAUAUGAUAUCGUUCUUUCUCCUAUAUUAUUACGUUCUUUCUCGAUAUCAUAUUAAUCUUU
B28: Id_ii_S2_P5E.3_K5.2_C5.2_[C-2T]_H5.2_A5.1_F5.1_T5.2_[A12C] (ssRNA)
RNA: UUUGAUUAAUAUGAUAUCGUUCUUUCUUUUAUAUUAUUAUCUUCUUUCUCGAUAUCAUAUUAAUCUUU

This data set addresses T1, PUF4 RNA-binding domain (Saccharomyces cerevisiae, UniProt P25339 537-888).
T1 sequence: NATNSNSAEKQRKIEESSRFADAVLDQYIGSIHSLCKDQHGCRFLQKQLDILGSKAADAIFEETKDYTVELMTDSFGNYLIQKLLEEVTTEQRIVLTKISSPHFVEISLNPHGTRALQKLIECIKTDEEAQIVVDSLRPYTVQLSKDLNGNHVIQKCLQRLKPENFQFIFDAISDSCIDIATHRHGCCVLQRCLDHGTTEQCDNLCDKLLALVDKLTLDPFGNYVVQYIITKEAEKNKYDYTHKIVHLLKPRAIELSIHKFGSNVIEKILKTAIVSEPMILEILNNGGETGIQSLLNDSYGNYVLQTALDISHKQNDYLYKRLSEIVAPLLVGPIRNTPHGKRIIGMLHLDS
In words: Mg; RNA-MaP; 20 mM Na-HEPES pH 7.4, 30 mM KOAc, 0.75 mM MgCl2, 0.1% Tween-20, 5% glycerol, 0.1 mg/mL BSA, 2 mM DTT; 25 C; 0.0125-409.6 nM protein. To be noted: tags: N-His6-TEV cleaved; C-SNAP kept, Cy3B-labelled; label: tethered on chip by stalled RNA polymerase.
Regarding UCUCUUUGUAUUCAUAUCUCUU (ssRNA) [Ib_S1_P5E.1_K5.1_C5.1_H5.1_A5.1_[A7C]_F5.1_[T8A]_T5.1], the Kd came to 14 nM.

Consider UCUCUUUGUAUAUUUCUCUU (ssRNA) [Ic_S1_P3E.1_K3.1_C3.1_H3.1_A3.1_F3.1_[A8T]_T3.1], for which the Kd was found to be 4.59 nM.

Turning to UCUCUUUGUAUUUCUAUCUCUU (ssRNA) [Ib_S1_P5E.1_K5.1_C5.1_H5.1_A5.1_[A7T]_F5.1_[T8C]_T5.1], the Kd came out at 6.46 nM.

As for B1, binding was characterised by a dissociation constant (Kd) of 131 nM.

For B2, binding was characterised by a dissociation constant (Kd) of 130 nM.

As to B3, binding was put at a Kd of 15.5 nM.

With B4, binding was put at a Kd of 207 nM.

For the molecule B5, binding was put at a Kd of 142 nM.

B6 came in with a Kd of 87.3 nM.

On to B7, for which the Kd came to 38.1 nM.

B8: the Kd was determined as 504 nM.

B9: binding was characterised by a dissociation constant (Kd) of 12.1 nM.

B10: binding was put at a Kd of 207 nM.

Molecule B11 yielded a Kd of 229 nM.

As to B12, binding was put at a Kd of 98.6 nM.

As for B13, the Kd was greater than 2300 nM.

The molecule B14 yielded an equilibrium dissociation constant (Kd) of 319 nM.

Consider B15, for which binding was put at a Kd of 162 nM.

The molecule B16 displayed a Kd of 11.9 nM.

On to B17, for which the Kd stood at 102 nM.

B18 yielded a Kd of 374 nM.

With B19, binding was characterised by a dissociation constant (Kd) of 97.6 nM.

On to B20, for which the affinity, expressed as Kd, was 122 nM.

In turn, B21 came in with a Kd of 269 nM.

B22: the Kd was found to be 28.1 nM.

Molecule B23 displayed a Kd of 762 nM.

Regarding B24, the dissociation constant Kd stood at 174 nM.

For B25, the Kd turned out to be 28.4 nM.

As for B26, binding was characterised by a dissociation constant (Kd) of 672 nM.

B27 registered a Kd of 392 nM.

B28 returned a Kd of 156 nM.

In turn, UCUCUUUGUCUUAUUAUCUCUU (ssRNA) [Ia_S1_P5E.1_K5.1_C5.1_H5.1_[A4C]_A5.1_F5.1_T5.1] had a Kd of 38.3 nM.

UCUCUUUGUAUUCCUAUCUCUU (ssRNA) [Ib_S1_P5E.1_K5.1_C5.1_H5.1_A5.1_[A7C]_F5.1_[T8C]_T5.1] registered a Kd of 17.5 nM.
